Measurements: doi:10.1101/2024.05.29.596243 (bioRxiv, 2024)

Biological target: the molecule itself
Experiment: cryo-electron tomography with subtomogram averaging

B1: H+-ATPase Pma1 (natural protein, UniProt Q6FXU5 1-902, looked up)
chain: MSDVESNNEKPPQDVYEDEEMSEDDDIDALIEELQSHHGMGDDDDSEDEGHHTGSARVVPEEYLQTDPSYGLTSDEVAHRRKKYGLNQMADERESMIVKFVMFFVGPIQFVMEAAAILAAGLSDWVDFGVICGLLMLNACVGFIQEFQAGSIVDELKKTLANVAVVIRDGQLVEVPANEVVPGDILQLEDGTIIPADGRLVTENCFLQVDQSAITGESLAVDKGYGDQTFSSSTVKRGEAFMVVTATGDNTFVGRAAALVNKASGGQGHFTEVLNGIGILLLVLVIVTLLGVWAACFYRTDNIVKILRFTLGITIIGVPVGLPAVVTTTMAVGAAYLAKKQAIVQKLSAIESLAGVEILCSDKTGTLTKNKLSLHEPYTVEGVSADDLMLTACLAASRKKKGLDAIDKAFLKSLINYPKAKDALTKYKVIEFHPFDPVSKKVTAVVESPEGERIVCVKGAPLFVLKTVEEDHPIPEDVHENYENKVAELASRGFRALGVARKRGEGHWEILGVMPCMDPPRDDTAETVNEARRLGLRVKMLTGDAVGIAKETCRQLGLGTNIYNAERLGLGGGGDMPGSELADFVENADGFAEVFPQHKYKVVEILQNRGYLVAMTGDGVNDAPSLKKADTGIAVEGASDAARSAADIVFLAPGLSAIIDALKTSRQIFHRMYSYVVYRIALSLHLELFLGLWIIILNHSLDIELIVFIAIFADVATLAIAYDNAPFSQTPVKWNLPRLWGMSIILGIVLAIGTWICLTTMFLPRGGIIQNFGSIDGVLFLQISLTENWLIFVTRAVGPFWSSIPSWQLAGAVFAVDIIATMFTLFGWFSQNWTDIVTVVKIYIWSIGVFCVLGGFYYIMSESVVFDRLMNGKPLKEEKSTRSVEDFLAAMQRVSTQHEKEN
stoichiometry N: 6
